# T1: human Sema3A (human) (UniProt Q14563)
# T1 sequence (looked up): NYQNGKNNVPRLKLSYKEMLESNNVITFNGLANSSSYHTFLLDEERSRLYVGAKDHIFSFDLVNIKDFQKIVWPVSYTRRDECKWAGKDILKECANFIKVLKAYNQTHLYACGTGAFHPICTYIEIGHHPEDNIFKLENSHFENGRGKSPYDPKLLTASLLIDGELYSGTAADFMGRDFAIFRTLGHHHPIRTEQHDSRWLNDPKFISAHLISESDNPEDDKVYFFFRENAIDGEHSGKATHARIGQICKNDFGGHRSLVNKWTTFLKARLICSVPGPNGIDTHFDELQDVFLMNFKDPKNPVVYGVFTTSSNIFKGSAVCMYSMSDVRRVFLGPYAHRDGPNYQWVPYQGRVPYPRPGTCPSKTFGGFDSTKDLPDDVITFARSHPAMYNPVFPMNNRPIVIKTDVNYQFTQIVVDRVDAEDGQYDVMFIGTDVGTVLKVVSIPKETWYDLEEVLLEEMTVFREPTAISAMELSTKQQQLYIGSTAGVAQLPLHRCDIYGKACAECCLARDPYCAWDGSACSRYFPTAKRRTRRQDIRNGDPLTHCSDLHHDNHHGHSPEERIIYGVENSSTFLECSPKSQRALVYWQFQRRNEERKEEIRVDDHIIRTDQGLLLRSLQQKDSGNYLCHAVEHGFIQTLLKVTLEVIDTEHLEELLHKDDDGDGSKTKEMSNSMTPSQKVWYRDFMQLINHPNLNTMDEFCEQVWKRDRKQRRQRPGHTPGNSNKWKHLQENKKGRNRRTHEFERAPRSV
# Target: T1, human Sema3A (human)
# Experiment: cell-based or functional assay
"cell migration of U87-MG cells (transwell, 50 ug/ml scFv)",cell migration of patient-derived 83 cells (transwell),cell migration of patient-derived 131 cells (transwell),Binder
74 % of control,28%,7%,"F11 anti-Sema3A scFv antibody fragment (scFv, part only; not given: linker and His/HA tags, V domains shown, not shown: another chain or arm of the molecule; large carriers; small tags and cut ends) VH: EVQLLESGGGLVQTGGSLRLSCAASGFTFSDYAMSWVRQAPGKGLEWVSWIYYDSGSKYYADSVKGRFTISRDNSKNTLYLQMNSLRAEDTAVYYCAKLNGDFDYWGQGTLVTVSS VL: QSVLTQPPSASGTPGQRVTISCSGSSSNIGNNDVSWYQQLPGTAPKLLIYADSHRPSGVPDRFSGSKSGTSASLAISGLRSEDEADYYCGAWDSSLSGYVFGGGTKLTVL"
78 % of control,21%,11%,"A08 anti-Sema3A scFv antibody fragment (scFv, part only; not given: linker and His/HA tags, V domains shown, not shown: another chain or arm of the molecule; large carriers; small tags and cut ends) VH: EVQLLESGGGLVQPGGSLRLSCAASGFTFSDYAMSWVRQAPGKGLEWVSGIYYDDSSQYYADSVKGRFTISRDNSKNTLYLQMNSLRAEDTAVYYCAKNLGRFDYWGQGTLVTVSS VL: QSVLTQPPSASGTPGQRVTISCTGSSSNIGSNAVTWYQQLPGTAPKLLIYDDNHRPSGVPDRFSGSKSGTSASLAISGLRSEDEADYYCGAWDDSLSAYVFGGGTKLTVL"
70 % of control,44%,19%,"C10 anti-Sema3A scFv antibody fragment (scFv, part only; not given: linker and His/HA tags, V domains shown, not shown: another chain or arm of the molecule; large carriers; small tags and cut ends) VH: EVQLLESGGGLVQPGGSLRLSCAASGFTFSDYAMSWVRQAPGKGLEWVSGIYYDDSSQYYADSVEGRFTISRDNSKNTLYLQMNSLRAEDTAVYYCARYLGLFDYWGQGTLVTVSS VL: QSVLTQPPSASGTPGQRVTISCSGSSSNIGNNSVNWYQQLPGTAPKLLIYSDSQRPSGVPDRFSGSKSGTSASLAISGLRSEDEADYYCGSWDYSLSAYVFGGGTKLTVL"

# — patent US20180244776A1
